Results from the DeepSol protein solubility set.

Assay: soluble on expression in E. coli; label from the status in PepcDB or PDB records

Sequence | soluble on expression in E. coli
MGSDKIHHHHHHMKFPRKGIPQEEVMRELEKYTSKDLSFSSGKILGSMCTLPHELAKEVFCMYMDRNLGDPGLHPGTKKIEEEVIEMLSDLLHLERGYGHIVSGGTEANILAVRAFRNLADVENPELILPKSAHFSFIKAGEMLGVKLIWADLNPDYTVDVKDVEAKISENTIGIVGIAGTTGLGVVDDIPALSDLARDYGIPLHVDAAFGGFVIPFAKELGYDLPDFDFKLKGVQSITIDPHKMGMAPIPAGGIVFRHKKYLRAISVLAPYLAGGKIWQATITGTRPGASVLAVWALIKHLGFEGYMEIVDRAMKLSRWFAEEIKKTPGAWLVREPMLNIVSFKTKNLRRVERELKSRGWGISAHRGYIRIVSHASCDGGHD | not soluble
MSLVDLDLTQIQKDILYALITLYKKKSGGSVKGEEIAELINRNPGTVRNQMQALRALGLVEGVPGPKGGYRPTSKAYELLSVTRPEESVVVPVVVNGNVMEELSAEEIVLPSISNPNICQARIRIIGDIKKINPGDSVIVGPTPVNEMMVYGKVVGRDDTENTIVLDIEKIVALPKDTVGEHMSSPIISVDAEESVVNAAKVLAENGIYCTPVQKNGKFVGIFTLDHVAKAVAEGKLNAKVEEVMRPKLVMVEKDTKIGEALRLMRDEKVRILLVTDKGEPVGVITDQKILTRLAPEQVETEGHHHHHH | soluble
MTIKIALLGFGTVAKGIPYLLKENQHKLLSLEGEDIVIDKVLVRDNESRQRFINQGFTYNFVTEINTILQDSQIDIVVELMGGIEPAKTYLSQALGFGKHIVTANKDLIALHGKELMDLADARGLALFYEGAVAGGIPILRTLSHSFASDKMTRLLGILNGTSNFMLTKMFEEGW | not soluble
MDTIININNNNQKYPQSAEEYHKVLCNYFITLQSAMQSTSRPSSSSPPSLPAVSSELLSSSFPTNAPESSSRDLAPKQNQFTINVVLFDEKKKKNPEENLPANGDQLATLRSLMMQINPSSPPSIPATSPQLPLAESENVPESSSTLKDHKFSLNTMLFNVKKNDAVKISLANQEQWAKFHEIGTEMMVFNSGRRLFPLLAYKVSGLDPHKLYCAGVHMIPDSAYKQEYDHDLQQWVNCLNQKKTIFKPTSEILGRIENGFKLMSLGIDMSDVKIFNIAIRKKTPLQIEKSRKPNLDKTIEVLIQYKYLPVIKIYELSNSGMEKKEIAQATFPETSFVTVSIYRNQKIKEMKTLGNKYCRTDRKQIVMEQRGELEQ | not soluble
MGSDKIHHHHHHRYSLLYVPNSFIVPGGRFREFYYWDAYWIIKGLIASDMYNTTRSMIRNLASMVDKYGFVPNGGRVYYLQRSQPPFLAAMVYELYEATNDKAFVAELLPTLLKELNFWNEKRMTDVQMNGKSFKVYQYKTASNVPRPESYRVDTQNSAKLANGADQQQFYQDLASAAESGWDFSTRWFSDYKTLTSIETTKVLPVDLNGLLCWNMDIMEYLYEQIGDTKNSQIFRNKRADFRDTVQNVFYNRTDGTWYDYNLRTQSHNPRFYTSTAVPLFTNCYNTLNTGKSQKVFDYMDKMGVFTYPGGIPTSMSQESDQQWDFPNGWSPNNHMIIEGLRKSANPEMQDKGFLIASKWVMGNFRVFYETGHMWEKYNVIGSYPQPGSGGEYDVQDGFGWSNGAILDLLLTYNDRLFVPENFVNTTVTPSVESTTKSAPKYAKLPWVLVFAFMIRQLFNY | not soluble
MAHHHHHHMHMFTNDWKSILAPLKSCRIKQQFDDREFLADFAMGLKLDFNNKYLVLDASTELLKFTAIESSDCCNRNCLPKMCIPINMKILTYGRELSRPDIVVEKDCSCTMLCLNRPTIKMYDFSNNNNKELIGTIKAPFSCCSYKFDLYDSAMRKIIYMDDTCCQLSILFPCPCGPFKFSNFFLRDAKTHEKVAHLQKEVPFLKFVKRDIDNYTLNFEQVQNPEWKMMLLAFSLFMDYIYYDRK | not soluble
SLREHLMSIEVANESGIDVSEAELVSVARFVIAKMDVNPCAELSMLLLDTAAMADLHMRWMDLPGPTDVMSFPMDELEPGGRPDAPEPGPSMLGDIVLCPEFAAEQAAAAGHSLGHELALLTIHGVLHLLGYDHAEPDEEKEMFALQDRLLEEWVADQVEAYQHDRQDEKDRRLLDKSRYFDL | not soluble
KLKDIAKKILVGGEKPSDFQKEKDQVYKYPILSNSRKADDFLGYSKTFRIAEKSITVSARGTIGAVFYRDFSYLPAVSLICFIPKPEFNINFLFHALKATKFHKQGSGTGQLTMAQFKEYQVYIPSLKKQQEIAATLDP | soluble
TMAGRSMQAARCPTDELSLSNCAVVSEKDYQSGQHVIVRTSPNHKYIFTLRTHPSVVPGSVAFSLPQRKWAGLSIGQEIEVALYSFDKAKQCIGTMTIEIDFLQKKNIDSNPYDTDKMAAEFIQQFNNQAFSVGQQLVFSFNDKLFGLLVKDIEAMDPSILKGEPASGKRQKIEVGLVVGNSQVAFEKAENSSLNLIGKAKTKE | soluble
MKTLILFSTRDGQTREIASYLASELKELGIQADVANVHRIEEPQWENYDRVVIGASIRYGHYHSAFQEFVKKHATRLNSMPSAFYSVNLVARKPEKRTPQTNSYARKFLMNSQWRPDRCAVIAGALRYPRYRWYDRFMIKLIMKMSGGETDTRKEVVYTDWEQVANFAREIAHLTDKPTLK | not soluble
MKLYYTPGSCSLSPHIVLRETGLDFSIERIDLRTKKTESGKDFLAINPKGQVPVLQLDNGDILTEGVAIVQYLADLKPDRNLIAPPKALERYHQIEWLNFLASEVHKGYSPLFSSDTPESYLPVVKNKLKSKFVYINDVLSKQKCVCGDHFTVADAYLFTLSQWAPHVALDLTDLSHLQDYLARIAQRPNVHSALVTEGLIKE | soluble
MLTLKNDYLTVKINPLGAELTSVVDNETQLEYMWQADKAYWGRHAPILFPIVGRLQDNQYRLGERTYHMTQHGFARDREFTVIDQTPTQVTLELTADDQSRALFPADFTLTVTFELIDHQLRFSADVFNPATTTLPFSIGAHPGFNVPLGDALADFTDYQVTVSPKKTYQRVPLVGPYSDSQHTEPLDLTQPLGLDHGLFAHDAQVLTLDSETTVMLSTPTNDHGVALTTTAPYLGIWSPYPKQAPFVCLEPWWGLADDVQATGELTTKVAIHHLAAQQHFQAAYQVTYFLEHHHHHH | not soluble
MAHHHHHHMYTRLTELFFISHTFRGRMSSTFCLQPSMMRPLLEQQRRFTSIISRFSSTVTSHVSSLADTHFMPLSEQCITEPRRPYPRRVSMQENLAERLTLQRSLRAHLVPLQVIVSKEKLYIELVWPSAALRAVENQKETMAHTVKGAAADGDDDGNDAALHHAMESPARTVSSGLSQRRPLEEHRTRFLAEFLRAYSPSTDVIGSDVLIYGRRGITITDVIPVGNYALRIVFSDGHSGGIYPYEYLFHLGCEKYSRMREYIRRLRAKHKSRDPPKRAPSQRLSRSRSAQRAEGRHMNSHGQDDQ | not soluble
MNRIAFDAKRITSNATGLGNYSRFVVEALAAFHSEHRYYLCSPGKGNPALYSALQQREGIEWLLPEGRRMGGTFWRNFGVVPRLQKEGIDLFHGLSHELPLGIYGKGIATVVTIHDLIFIRYPHYYKPVDRLLYRLKYGHAARCADRVIAISEQTKRDVMEFFHVPADRIDVVYQGCSPAFGQATEEDESRARERYALPERYLLYVGSIETRKNLRLAVEALAHCRDRHIRLVAVGKRTPYCAEVQQCAERSGVADRLVMLHDVPFAFLPGIYRGAEVFVYPSRFEGFGIPIVEALASGVPVVAATGSCLEEAGGPSSLYTDPDDAEMMASMLDSILSDSSLREKMIADGRTYIERFSPEAVARSLMHVYDKVL | not soluble
MMSDQENENEHAKAFLGLAKCEEEVDAIEREVELYRLNKMKPVYEKRDAYIDEIAEFWKIVLSQHVSFANYIRASDFKYIDTIDKIKVEWLALESEMYDTRDFSITFHFHGIEGDFKEQQVTKVFQIKKGKDDQEDGILTSEPVPIEWPQSYDSINPDLIKDKRSPEGKKKYRQGMKTIFGWFRWTGLKPGKEFPHGDSLASLFSEEIYPFCVKYYAEAQRDLEDEEGESGLSADGDSEDDDGSLGEVDLPLSDEEPSSKKRKV | soluble
MSGSDDDATQISREDEELAYEIYFWIVRCICEKGVVKISELRKIYQSTVVKDRSVQFRPLPGVLKAVNENLLHWQGWNAVIQDDRLTYVNVNGDAPNEVRASETERTLGLLKNVLMYVFVATKPQSKHPGVAQEDLMSYMEASMSTHSDRKLSLDHMEFLKKLIAPNARSEFIKKGYLAFTKSVNENDEEVFRYEWGPAARQTVDPLALVQTFQQLTGMKPEMLKEQTERANELKAEQVAAVTRGGVLRTRGQ | not soluble
MGSDKIHHHHHHMKMNIPVIFQFLKDLSANNNREWFNEHRSEYEVARAEFDNFLATVIARISLFDETIRGIQPKDCTYRIYRDTRFSADKTPYKIHFGGYINAKGKKSDHCGYYVHLQPDGSMLAGGSLCLPPNVLKAVRQAIYDNVEEYISIVEDPEFKKYFPVVGEDFMKTAPKGFPKDFKYIDYLKCRQFVCSYLVPDDFFTRADMMEQIEKAFRQFKRFADFINYTIDDFE | not soluble
MNPQRDCKEFKVETRTITEVQSEPIYPTGRCGPVLARIPVVISQSKVHIDIESRVCFDHSVFDIYSHSRNIYLTQCKLLNMGNKRYGKIYLNGYVSENIAYAAYCMKGREYGNKKSTSADMLYKTLKVPFECVAKIEYCTSPVFKTSNGFIPVALPDKENSPEDSYFSGERLFCELDEASICESNVERKKLFSRINAGEDSFDTLTEYLVLSITFTLLQWQQVRIPGYFPNNPHSQI | not soluble
SNANCKKIGEDSKIIIRQITDNDLELLMAWRSNPLIYKFFYIQKEPLKWEEHYSWWMSRENRVDWIILLRENNTIRKVGSVNVSQLNTDNPEIGILIGEFFLWGKHIGRHSVSLVLKWLKNIGYKKAHARILENNIRSIKLFESLGFKKTKKGRENEWIYEVNL | soluble
MQDEFYMARALKLAQRGRFTTHPNPNVGCVIVNNGDIVGEGYHHRAGEPHAEVHALRMAGAKAKGATAYVTLEPCSHHGRTPPCCDALIAAGVARVVAAMQDPNPQVAGRGLYRLQQAGIAVSHGLMMSEAEALNKGFLKRMRTGFPYLQLKLGASVDGRTAMASGESQWITSPQARRDVQRLRAQSHAILTSSATVLADDPALTVRWAELDASTQASYPQENLRQPVRIVIDSQNRVTPAHRIVQQPGETWIARTQEDSRAWPDAVRTISVPAHNGHLDLVVLMMQLGRQQINSIWVEAGPGLAGALLQAGLVDELIVYVAPKLLGTQARGLCELPGLEKLADAPQFTFSEIRHVGPDVCLHMVSA | soluble
MSSCVNTSQTGPKKKISFIIRDEHEYSNRSAVSALQYDAQNGRLFTGGSDTIIRTWSVPHHKDAFSARGGVRSPGKNSPVQYQGSLEQHTDWVNDMILCGHGKILISASNDTTVKVWNIERDNKHGFIDCIRTHKDYVSCLAYAPIVEKAVSASFDHNIFVYDINANFKTVNNLIGCKDSIYSLATTPNLSLVLGAGTEKCIRLFDPRTNEKIMKLRGHTDNVRALVVNDDGTRALSAGSDATIRLWDIGQQRCIATCIAHEEGVWTLQVDSSFTTVYSAGKDKMVVKTPLYDFTKSQLLFKEEAPVKKLLLSEKDNPVSLWVGTWKSDIKRWSIRPSAQLSIGGDEDGPSTSNANHSVSASSSPPVTFKYIRVKDQKGQQSTPELVIPGAPAIKKHAMLSDKRHVLTRDSDGNVALYDVLAARKIKDYGKRIFEEVVDENSRQVYIPSWFVVDSKSGMLQITLDELDALSSWLSSKDAGFDDNDRETKLNYGGMMLRSLFERWPPCKMTNVDAADADDVQKATLNFISLPEHTPLIICEGNGRPLYRLLVGDAGKEFEANELAQIAPMWVIDAIERNQLPKFNKMPFYLLPHPSTNPKQPKKDRLSATEMLQVKKVMEHVYEKILSTNDDITVGSIPLNQIHTKMEMYCNDQRLEPDMDLRTVKHLYWKQSGELLLHYKPVK | not soluble
